Target: T1, GDF5 homodimer (human) (UniProt P43026)
T1 sequence: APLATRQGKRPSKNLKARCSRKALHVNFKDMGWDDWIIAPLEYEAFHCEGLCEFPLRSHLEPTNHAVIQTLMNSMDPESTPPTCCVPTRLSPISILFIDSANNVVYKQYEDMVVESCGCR

Chain of Noggin (Q13253 28-232): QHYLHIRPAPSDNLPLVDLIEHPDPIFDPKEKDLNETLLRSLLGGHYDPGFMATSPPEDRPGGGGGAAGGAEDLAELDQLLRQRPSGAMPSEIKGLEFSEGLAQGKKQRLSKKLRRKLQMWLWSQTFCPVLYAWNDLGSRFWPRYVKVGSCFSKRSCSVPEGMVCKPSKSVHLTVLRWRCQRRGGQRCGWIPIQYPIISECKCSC

Row | IC50 of inhibition of signalling by 5 nM GDF5, luciferase reporter in BRITER osteoblast cells [nM] | Substance
1 | 38 | Gremlin-2 (from UniProt O88273 22-168) (natural protein)
2 | 42 | Noggin (from UniProt Q13253 28-232) (natural protein)
